The values below come from publication PMC12756740, “A GH42 β‑Galactosidase from the Human Isolate Bifidobacterium breve DSM 20213: Biochemical and Transgalactosylation Properties Reveal the Potential for Galacto-oligosaccharides Synthesis” (ACS Omega, 2025).

Substrate in this data set: O=[N+]([O-])c1ccccc1O[C@@H]1O[C@H](CO)[C@H](O)[C@H](O)[C@H]1O
Kind of data set: purified protein. In kind it is biochemical, Bifidobacterium breve. The note with it: 50 mM sodium phosphate pH 6.5, 30 °C, 0.01-22 mM oNPG.

B1: Bbreβgal-III (Bifidobacterium breve DSM 20213 = JCM 1192) (protein)
chain: MEHREFKWPQPLAGGKPRIWYGGDYNPDQWPEEVWDEDVALMQKAGVNLVSVAIFSWAKLEPEEGVYDFDWLDRVIDKLGKAGIAVDLASGTASPPMWMTQAHPEILWVDYRGDVCQPGARQHWRATSPVFLDYALNLCRKMAEHYKDNPYVVSWHVSNEYGCHNRFDYSEDAERAFQKWCEKKYGTIDAVNDAWGTAFWAQRMNNFSEIIPPRFIGDGNFMNPGKLLDWKRFSSDALLDFYKAERDALLEIAPKPQTTNFMVSAGGAGIDYDKWGYDVDFVSNDHYFTPGEAHFDELAYSASLCDGIARKNPWFLMEHSSSAVNWRPINYRVEPGELVRDSLAHLAMGSDAICYFQWRQSKAGAEKWHSSMVPHAGPDSQIFRDVCELGADLNKLADEGLLSTKLVKSKVAVVFDYESQWATEHTATPTQEVRHWTEPLAWFRALADNGLTADVVPVRGPWDEYEAVVLPSLTILSEETTRRVREYVANGGKLFVTYYTGLVDDKDHVWLGGYPGSIRDVVGVRVEEFAPMGNDFPGAIDHLDLDNGTVAHDFADVITSVADTAHVVAAFKADKWTGFDGAPAITVNDFGDGKAAYIGARLGREGLAKSLPALLEELGIETSAEDDRGEVLRVERADETGENHFVFLFNRTHDVAIVDVDGEPLVASLAQVNESEHTAAIQPNGVLVVKL
notes: pET21a(+) NdeI/NotI, His-tagged, E. coli BL21 Star (DE3), IMAC purified
Broadly, the Km is the substrate concentration at which the rate is half of its maximum. What is called Vmax is the top rate of the reaction or transport when substrate is in excess. What is called kcat is the maximal rate divided by the concentration of active sites. The kcat/Km is the turnover number divided by the Michaelis constant. In the case of B1, the Km was found to be 1570 ± 160 µM, the Vmax was 3650 µmol/min/mg, the kcat turned out to be 4690 ± 260 s⁻¹ and the kcat/Km is 2.99e+06 ± 140000 M⁻¹ s⁻¹.
